The text below walks through data of patent publication US20210024620A1.

Assay [1] deals with rat FcRn (rat) (UniProt P13599). As to the kind of experiment: Biacore SPR, pH 6.0. In general terms: Surface plasmon resonance follows binding to a sensor surface in real time, without labels.
For assay [2] the target is unchanged. In words: Biacore, pH 6.0, apparent KD.
Assay [3] concerns the target biotinylated human FcRn (human) (UniProt P55899). In words: Biacore SPR, pH 7.4, 1000 nM antibody.
Assay [4] has as its target rat FcRn (rat) (UniProt P13599). In words: Biacore SPR, pH 7.4, 1000 nM antibody.
The target of assay [5] is FcRn immobilised on the FcRn affinity column (biotinylated cynoFcRn in one experiment, biotinylated hFcRn in another). As to the kind of experiment: FcRn affinity chromatography, linear pH gradient; species of the immobilised FcRn not given.
Assay [6] concerns the target biotinylated human FcRn (human) (UniProt P55899). As to the kind of experiment: Biacore SPR, pH 6.0.
For assay [7] the target is unchanged. In words: Biacore SPR, pH 6.0. This is another data set of the same source.
The target is the same in assay [8]. As to the kind of experiment: Biacore, pH 6.0, apparent KD.
The target in assay [9] is rat FcRn (rat) (UniProt P13599). In words: Biacore SPR, pH 7.4.
In assay [10] the target is biotinylated human FcRn (human) (UniProt P55899). As to the kind of experiment: Biacore SPR, pH 7.4.
Chain of biotinylated human FcRn (human) (P55899 24-297 limits assumed, chain 1 of 2): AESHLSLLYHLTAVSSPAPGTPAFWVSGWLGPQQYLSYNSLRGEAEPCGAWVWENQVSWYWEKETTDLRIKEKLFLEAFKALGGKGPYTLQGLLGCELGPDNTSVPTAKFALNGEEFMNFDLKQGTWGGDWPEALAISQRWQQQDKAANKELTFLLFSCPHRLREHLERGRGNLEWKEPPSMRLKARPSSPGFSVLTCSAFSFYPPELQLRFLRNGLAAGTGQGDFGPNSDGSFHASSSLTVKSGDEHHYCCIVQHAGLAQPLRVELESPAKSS
Chain of biotinylated human FcRn (human) (P61769 21-119 limits assumed, chain 2 of 2, further chain): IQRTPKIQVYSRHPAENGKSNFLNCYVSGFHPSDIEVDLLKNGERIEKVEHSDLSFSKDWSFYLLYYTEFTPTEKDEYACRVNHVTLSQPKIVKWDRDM
The target is the same in assay [11]. In words: Biacore, pH 6.0.
Assay [12] concerns the target biotinylated human FcRn (p51 subunit residues 24-297 with C-terminal Avi-tag; beta2-microglobulin residues 21-119) (human) (UniProt P55899). As to the kind of experiment: Biacore SPR, pH 6.0.
Assay [13] shares this target. As to the kind of experiment: Biacore; affinity at pH 6.0 (M^-1) over steady state RU at pH 7.4.
The target in assay [14] is Human CD16a (FcγRIIIa V158) with C-terminal HPC4 tag (human) (UniProt P08637). In words: Biacore, FcγRIIIa V158 captured, steady-state fit, apparent KD.
Chain of Human CD16a (FcγRIIIa V158) with C-terminal HPC4 tag (human) (P08637 17-208 F176V): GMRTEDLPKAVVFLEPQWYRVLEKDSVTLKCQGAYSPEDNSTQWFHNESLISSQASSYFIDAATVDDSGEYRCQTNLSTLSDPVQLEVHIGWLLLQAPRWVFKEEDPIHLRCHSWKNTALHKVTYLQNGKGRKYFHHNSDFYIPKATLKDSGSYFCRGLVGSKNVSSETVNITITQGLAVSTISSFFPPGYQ
The target of assay [15] is biotinylated human FcRn (p51 subunit residues 24-297 with C-terminal Avi-tag; beta2-microglobulin residues 21-119) (human) (UniProt P55899). In words: Biacore; inverse ratio (RU at pH 7.4 over affinity at pH 6.0).
Chain of biotinylated human FcRn (p51 subunit residues 24-297 with C-terminal Avi-tag; beta2-microglobulin residues 21-119) (human) (P55899 24-297 limits assumed, chain 1 of 2): as the sequence (P55899 24-297 limits assumed, chain 1 of 2) above
Chain of biotinylated human FcRn (p51 subunit residues 24-297 with C-terminal Avi-tag; beta2-microglobulin residues 21-119) (human) (P61769 21-119 limits assumed, chain 2 of 2, further chain): as the sequence (P61769 21-119 limits assumed, chain 2 of 2, further chain) above
Assay [16] shares this target. In words: Biacore SPR, pH 7.4, steady state.
Assay [17] concerns the target rat FcRn (rat) (UniProt P13599). In words: Biacore, pH 6.0.
The target in assay [18] is biotinylated human FcRn (human) (UniProt P55899). In words: Biacore, pH 7.4, steady state response.
Assay [19] addresses rat FcRn (rat) (UniProt P13599). As to the kind of experiment: Biacore, pH 7.4, steady state response.
For assay [20], the target named is biotinylated cynomolgus FcRn (cynomolgus) (UniProt Q8SPV9). As to the kind of experiment: Biacore, biotin-captured cFcRn, pH 8.0, 1000 nM antibody.
Assay [21] has as its target biotinylated human FcRn (human) (UniProt P55899). As to the kind of experiment: Biacore, biotin-captured hFcRn, pH 8.0, 1000 nM antibody.
For assay [22] the target is unchanged. In words: Biacore, biotin-captured hFcRn, pH 7.4, 1000 nM antibody.
In assay [23] the target is biotinylated cynomolgus FcRn (cynomolgus) (UniProt Q8SPV9). In words: Biacore, biotin-captured cFcRn, pH 9.0, 1000 nM antibody.
Assay [24] shares this target. As to the kind of experiment: Biacore, biotin-captured cFcRn, pH 7.4.
The target is the same in assay [25]. In words: Biacore, biotin-captured cFcRn, pH 7.4, 1000 nM antibody.
For assay [26] the target is unchanged. As to the kind of experiment: Biacore, biotin-captured cFcRn, pH 8.0.
For assay [27], the target named is biotinylated human FcRn (human) (UniProt P55899). In words: Biacore, biotin-captured hFcRn, pH 7.4.
Assay [28] has the same target. In words: Biacore, biotin-captured hFcRn, pH 8.0.
The target in assay [29] is biotinylated cynomolgus FcRn (cynomolgus) (UniProt Q8SPV9). As to the kind of experiment: Biacore, biotin-captured cFcRn, pH 6.0.
Assay [30] deals with biotinylated human FcRn (human) (UniProt P55899). As to the kind of experiment: Biacore, biotin-captured hFcRn, pH 6.0.

Chain of rat FcRn (rat) (P13599 23-298 limits assumed, chain 1 of 2): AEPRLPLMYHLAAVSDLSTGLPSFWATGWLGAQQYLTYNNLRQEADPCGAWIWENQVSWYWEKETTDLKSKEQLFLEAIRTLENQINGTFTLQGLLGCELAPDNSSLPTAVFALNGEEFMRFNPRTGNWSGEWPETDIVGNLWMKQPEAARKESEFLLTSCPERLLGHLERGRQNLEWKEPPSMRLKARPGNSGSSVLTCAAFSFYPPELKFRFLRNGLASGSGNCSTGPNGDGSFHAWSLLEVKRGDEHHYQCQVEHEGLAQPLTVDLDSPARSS
Chain of rat FcRn (rat) (P07151 21-119 limits assumed, chain 2 of 2, further chain): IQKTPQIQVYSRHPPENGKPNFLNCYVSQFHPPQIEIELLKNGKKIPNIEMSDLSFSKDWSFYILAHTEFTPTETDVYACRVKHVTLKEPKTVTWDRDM

As for mAb1 K288D (antibody), the Kd in assay [1] and in assay [2] was 149 nM each time. For the same substance, the Steady State RU in assay [3] is 3.8 RU; in assay [4], 21.9 RU. Also, in assay [5], the FcRn affinity column elution pH was 7.33 pH.
On to mAb1 M252Y (antibody), for which the Kd in [6] is 3100 nM; in assay [1], 25 nM; in [7] it was over 3000 nM; in assay [8] it was 3100 nM; in assay [2], 25 nM. Further, the Steady State RU is 50.5 RU in assay [9] and 57.7 RU in assay [4]. The same substance displayed a FcRn affinity column elution pH in assay [5] of 7.88 pH.
As to “mAb1 N434F (antibody; other documents disagree on this pair)”, the Kd in assay [6] and in [8] was 165 nM in each case. Moreover, the Steady State RU in [10] was found to be 22.2 RU; in assay [3] it was 20.1 RU.
Consider mAb1 N434P (antibody), for which the Kd in assay [1] and in assay [2] was 194 nM in each case. Moreover, the Steady State RU in assay [3] was 3.5 RU; in assay [4], 4.3 RU. This substance also had a FcRn affinity column elution pH in assay [5] of 7.56 pH.
One may read the koff as a measure of how fast the partners let go of each other. Broadly, the kon is a measure of how fast the partners come together. Read a high kon as faster complex formation. For “mAb1 N434Y (antibody; other documents disagree on this pair)”, the Kd in assay [6] and in [8] was 137 nM each time. Besides, the koff came to 0.052 s⁻¹ in assay [6], 0.05 s⁻¹ in assay [7] and 0.05 s⁻¹ in [11]. For the same substance, the kon in [6] was 359000 M⁻¹ s⁻¹; in assay [7] it was 360000 M⁻¹ s⁻¹; in [11], 360000 M⁻¹ s⁻¹. For the same substance, the results for the Steady State RU in [10] and in assay [3] were 25.5 RU and 22.6 RU, respectively.
mAb1 T256D (antibody): the Kd in [6] is 6700 nM; in assay [1] it was 86 nM; in [7], over 3000 nM; in assay [8], 6700 nM; in [2], 86 nM. In addition, the Steady State RU came to 23.2 RU in assay [9] and 30.4 RU in assay [4]. Moreover, the FcRn affinity column elution pH in assay [5] worked out at 7.82 pH.
As for mAb1 T256E (antibody), the Kd is 113 nM in [1], over 3000 nM in assay [7] and 113 nM in assay [2]. For the same substance, the Steady State RU came to 4.5 RU in assay [10], 17 RU in assay [9], 4.8 RU in assay [3] and 23 RU in assay [4]. This substance also returned a FcRn affinity column elution pH in assay [5] of 7.63 pH.
For the substance mAb1 T307A (antibody), the Kd in assay [1] and in [2] was 132 nM in each case. For the same substance, the values for the Steady State RU in [3] and in assay [4] were 5.2 RU and 23.1 RU, respectively. The same substance came in with a FcRn affinity column elution pH in assay [5] of 7.61 pH.
Take mAb1 T307F (antibody): the Kd in assay [1] and in [2] was 131 nM each time. The Steady State RU in assay [3] came out at 4.9 RU; in assay [4] it was 21.9 RU. Also, in assay [5], the FcRn affinity column elution pH is 7.61 pH.
Consider mAb1 T307M (antibody), for which the Kd in assay [1] and in [2] was 279 nM each time. Besides, the Steady State RU came to 4.4 RU in [3] and 15.3 RU in assay [4]. In [5], this substance displayed a FcRn affinity column elution pH of 7.4 pH.
Consider mAb1 T307Q (antibody), for which the Kd in assay [6] was 5720 nM; in [1], 58 nM; in assay [7], over 3000 nM; in [8], 5720 nM; in assay [2], 58 nM. Moreover, the Steady State RU in assay [10] is 6.6 RU; in assay [9], 31.3 RU; in assay [3], 6.4 RU; in assay [4] it was 24.3 RU. In assay [5], this substance returned a FcRn affinity column elution pH of 7.86 pH.
Take mAb1 T307W (antibody): the Kd in [6] was 8740 nM; in assay [1] it was 111 nM; in assay [7], over 3000 nM; in assay [8], 8740 nM; in assay [2] it was 111 nM. The values for the Steady State RU in assay [9] and in assay [4] were 21.9 RU and 19.2 RU, respectively. In addition, the FcRn affinity column elution pH in [5] was 7.75 pH.
Take mAb1 Y436H (antibody): the Kd in assay [1] and in assay [2] was 131 nM each time. Further, the Steady State RU came to 3.6 RU in assay [3] and 16.3 RU in [4]. In assay [5], this substance returned a FcRn affinity column elution pH of 7.33 pH.
Take mAb1 Y436N (antibody): the Kd in assay [1] and in assay [2] was 233 nM in each case. Also, the Steady State RU in [3] turned out to be 3.6 RU; in assay [4] it was 17.4 RU. In [5], the FcRn affinity column elution pH is 7.22 pH.
With mAb1 Y436W (antibody), the Kd in assay [1] and in [2] was 1140 nM each time. For the same substance, the Steady State RU amounted to 3.7 RU in assay [3] and 10.3 RU in assay [4]. The FcRn affinity column elution pH in assay [5] amounted to 7.39 pH.
“mAb1 YDQN (M252Y/T256D/T307Q) (antibody)” yielded a Ka in assay [12] of 8.7e+06 M⁻¹. The Ratio (pH 6.0/pH 7.4) stood at 439000 in assay [13] and 2.28e-06 in [15]. For the same substance, the Kd in assay [8] is 115 nM; in assay [2], 5.1 nM; in assay [14], 1060 nM. In assay [16], this substance came in with a Steady State Binding, pH 7.4 (RU) of 19.8 RU. The koff in assay [11] turned out to be 0.028 s⁻¹; in assay [17], 0.0003 s⁻¹. The kon stood at 250000 M⁻¹ s⁻¹ in [11] and 5000 M⁻¹ s⁻¹ in assay [17]. In [5], this substance had a FcRn affinity column elution pH of 8.51 pH. Besides, the Steady State RU in assay [18] came to 19.8 RU; in [19], 65.2 RU.
For the substance “mAb1 YEWY (M252Y/T256E/T307W/N434Y) (antibody)”, the Steady State RU in [20] came out at 303 RU; in assay [21], 245 RU; in assay [22], 141 RU; in assay [23], 5.4 RU; in assay [25], 162 RU. Also, the Kd amounted to 63 nM in [24]; 1300 nM in [26]; 61 nM in [27]; 1900 nM in [28]; 6.1 nM in assay [29].
In the case of mAb1 YTTY (M252Y/N434Y) (antibody), the Steady State RU in assay [20] was 238 RU; in assay [21], 188 RU; in [22], 125 RU; in assay [23], 1 RU; in assay [10], 54.1 RU; in [9] it was 67.9 RU. This substance also registered a Steady State RU in assay [25] of 147 RU. Besides, the Kd is 8.32 nM in assay [6]; 0.26 nM in assay [1]; 83 nM in assay [24]; 1300 nM in assay [26]; 65 nM in assay [27]; 3300 nM in assay [28]. Besides, in [29], the Kd came out at 20 nM. Also, the Ka in assay [12] was found to be 1.2e+08 M⁻¹. The Steady State Binding, pH 7.4 (RU) in assay [16] came to 54.1 RU.
As for mAb1 wildtype (WT) human IgG1 antibody, the Steady State RU in assay [20] came to 1.4 RU; in assay [21], 0.2 RU; in [22] it was 0.2 RU; in assay [10] it was 4.2 RU; in [9], 13 RU; in [3] it was 4.3 RU. The Steady State RU in assay [4] came out at 12.2 RU; in assay [25], 1.5 RU. Besides, the Kd came out at 207 nM in [1], 2380 nM in [7], 1300 nM in assay [30] and 660 nM in assay [29]. Moreover, the FcRn affinity column elution pH in [5] was found to be 7.37 pH.
